The record followed here is paper doi:10.1101/2021.05.23.445348.

pKd: −log10 of the molar value.

Common to all, as to experiment: ITC
Test [1] concerns the target SARS-CoV-2 RBD K417N (SARS-CoV-2) (UniProt P0DTC2).
The target of test [2] is SARS-CoV-2 RBD Y453F (SARS-CoV-2) (UniProt P0DTC2).
The target in test [3] is SARS-CoV-2 RBD T478I (SARS-CoV-2) (UniProt P0DTC2).

As for “CC12.1 single chain variable fragment (scFv)”, the pKd (in general, −log10 of the Kd, conventionally taken in molar units) in test [1] is 6.92; in test [2], 6.08; in test [3] it was 8.24.
